Data reported in article PMC10786891, “Massively parallel profiling of RNA-targeting CRISPR-Cas13d”.

T1: EsCas13d, nuclease-dead (Eubacterium siraeum, UniProt B0MS50, R295A;H300A;R849A;H854A)
T1 sequence: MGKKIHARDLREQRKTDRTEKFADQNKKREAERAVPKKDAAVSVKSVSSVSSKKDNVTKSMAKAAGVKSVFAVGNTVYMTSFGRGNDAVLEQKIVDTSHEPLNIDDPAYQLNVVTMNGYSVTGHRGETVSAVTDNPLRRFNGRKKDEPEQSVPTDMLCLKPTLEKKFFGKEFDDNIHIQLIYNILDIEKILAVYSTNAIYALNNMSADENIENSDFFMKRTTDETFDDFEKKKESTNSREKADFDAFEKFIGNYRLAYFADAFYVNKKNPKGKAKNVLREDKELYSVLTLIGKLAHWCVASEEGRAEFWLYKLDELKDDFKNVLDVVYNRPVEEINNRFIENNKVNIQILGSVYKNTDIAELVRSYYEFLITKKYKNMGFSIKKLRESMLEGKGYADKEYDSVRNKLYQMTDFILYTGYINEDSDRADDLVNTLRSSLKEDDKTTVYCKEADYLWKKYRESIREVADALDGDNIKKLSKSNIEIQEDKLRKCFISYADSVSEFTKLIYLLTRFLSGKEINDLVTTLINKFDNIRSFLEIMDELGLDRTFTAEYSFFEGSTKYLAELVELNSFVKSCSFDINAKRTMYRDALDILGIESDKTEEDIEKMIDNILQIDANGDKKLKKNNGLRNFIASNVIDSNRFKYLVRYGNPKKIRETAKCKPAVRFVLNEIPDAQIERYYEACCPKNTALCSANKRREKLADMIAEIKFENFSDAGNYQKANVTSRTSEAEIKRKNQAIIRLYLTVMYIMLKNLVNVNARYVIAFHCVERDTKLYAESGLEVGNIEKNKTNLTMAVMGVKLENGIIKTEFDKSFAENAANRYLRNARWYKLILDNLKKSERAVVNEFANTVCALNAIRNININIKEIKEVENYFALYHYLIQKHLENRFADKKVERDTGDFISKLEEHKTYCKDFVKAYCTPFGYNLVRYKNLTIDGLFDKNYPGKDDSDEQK


Biological target: T1, EsCas13d, nuclease-dead
Assay: crRNA (strand 1, pre-loaded); Mg2+; 40 mM Tris-HCl pH 7.5, 150 mM NaCl, 6 mM MgCl2, 1 mM DTT, 0.1% Tween-20, 0.2 mg/ml BSA; 25 C; 10 min per concentration, then washed
Settings: tags: His6-TwinStrep-SUMO cleaved; N-terminal SNAP kept (SNAP-Surface 488); label: 3' end held by stalled T7 RNA polymerase

Binder | Kd [nM]
target 1 C6G,A9U (mixed) RNA 1: CACCCGUGCAAAAAUGCAGGGGUCUAAAACUGAGCGGAUAACCUCUCUAUGG RNA 2: GGGAAUGGAUCCACAUCUACGAAUUCGUACCAUAGAGAGGUUUUCGGCUCACCGAGAUCGGAAGAGCACACGU | 6.92 ± 0.27
target 1 A1G,U10C (mixed) RNA 1: CACCCGUGCAAAAAUGCAGGGGUCUAAAACUGAGCGGAUAACCUCUCUAUGG RNA 2: GGGAAUGGAUCCACAUCUACGAAUUCGUACCAUAGAGAGGUCAUCCGCUCGCCGAGAUCGGAAGAGCACACGU | 17.3 ± 0.9
target 1 complement block 3-12 (mixed) RNA 1: CACCCGUGCAAAAAUGCAGGGGUCUAAAACUGAGCGGAUAACCUCUCUAUGG RNA 2: GGGAAUGGAUCCACAUCUACGAAUUCGUACCAUAGAGAGCAAUAGGCGACACCGAGAUCGGAAGAGCACACGU | 14.4 ± 0.5
target 1 insU 3' of 15,insA 3' of 13 (mixed) RNA 1: CACCCGUGCAAAAAUGCAGGGGUCUAAAACUGAGCGGAUAACCUCUCUAUGG RNA 2: GGGAAUGGAUCCACAUCUACGAAUUCGUACCAUAGAGUAGAGUUAUCCGCUCACCGAGAUCGGAAGAGCACACGU | 10.2 ± 0.7
target 1 insG 3' of 9,insA 3' of 8 (mixed) RNA 1: CACCCGUGCAAAAAUGCAGGGGUCUAAAACUGAGCGGAUAACCUCUCUAUGG RNA 2: GGGAAUGGAUCCACAUCUACGAAUUCGUACCAUAGAGAGGUUAGUACCGCUCACCGAGAUCGGAAGAGCACACGU | 19.6 ± 1
target 1 insU 3' of 9,insG 3' of 1 (mixed) RNA 1: CACCCGUGCAAAAAUGCAGGGGUCUAAAACUGAGCGGAUAACCUCUCUAUGG RNA 2: GGGAAUGGAUCCACAUCUACGAAUUCGUACCAUAGAGAGGUUAUUCCGCUCAGCCGAGAUCGGAAGAGCACACGU | 18.9 ± 2.5
target 1 insC 3' of 22,insC 3' of 1 (mixed) RNA 1: CACCCGUGCAAAAAUGCAGGGGUCUAAAACUGAGCGGAUAACCUCUCUAUGG RNA 2: GGGAAUGGAUCCACAUCUACGAAUUCGUACCCAUAGAGAGGUUAUCCGCUCACCCGAGAUCGGAAGAGCACACGU | 17.2 ± 1
target 1 G12C (mixed) RNA 1: CACCCGUGCAAAAAUGCAGGGGUCUAAAACUGAGCGGAUAACCUCUCUAUGG RNA 2: GGGAAUGGAUCCACAUCUACGAAUUCGUACCAUAGAGAGCUUAUCCGCUCACCGAGAUCGGAAGAGCACACGU | 8.3 ± 0.7
target 1 insG 3' of 6,insG 3' of 3 (mixed) RNA 1: CACCCGUGCAAAAAUGCAGGGGUCUAAAACUGAGCGGAUAACCUCUCUAUGG RNA 2: GGGAAUGGAUCCACAUCUACGAAUUCGUACCAUAGAGAGGUUAUCCGGCUGCACCGAGAUCGGAAGAGCACACGU | 7.3 ± 0.5
target 1 insG 3' of 16,insU 3' of 9 (mixed) RNA 1: CACCCGUGCAAAAAUGCAGGGGUCUAAAACUGAGCGGAUAACCUCUCUAUGG RNA 2: GGGAAUGGAUCCACAUCUACGAAUUCGUACCAUAGAGGAGGUUAUUCCGCUCACCGAGAUCGGAAGAGCACACGU | 28.9 ± 2.2
target 1 insA 3' of 19,insU 3' of 13 (mixed) RNA 1: CACCCGUGCAAAAAUGCAGGGGUCUAAAACUGAGCGGAUAACCUCUCUAUGG RNA 2: GGGAAUGGAUCCACAUCUACGAAUUCGUACCAUAAGAGAGUGUUAUCCGCUCACCGAGAUCGGAAGAGCACACGU | 35 ± 13
target 1 G5A,G17U (mixed) RNA 1: CACCCGUGCAAAAAUGCAGGGGUCUAAAACUGAGCGGAUAACCUCUCUAUGG RNA 2: GGGAAUGGAUCCACAUCUACGAAUUCGUACCAUAUAGAGGUUAUCCACUCACCGAGAUCGGAAGAGCACACGU | ~100
target 1 insC 3' of 22,insU 3' of 1 (mixed) RNA 1: CACCCGUGCAAAAAUGCAGGGGUCUAAAACUGAGCGGAUAACCUCUCUAUGG RNA 2: GGGAAUGGAUCCACAUCUACGAAUUCGUACCCAUAGAGAGGUUAUCCGCUCAUCCGAGAUCGGAAGAGCACACGU | 20.6 ± 1.9
target 1 insG 3' of 18,insG 3' of 1 (mixed) RNA 1: CACCCGUGCAAAAAUGCAGGGGUCUAAAACUGAGCGGAUAACCUCUCUAUGG RNA 2: GGGAAUGGAUCCACAUCUACGAAUUCGUACCAUAGGAGAGGUUAUCCGCUCAGCCGAGAUCGGAAGAGCACACGU | 55 ± 10
target 1 insG 3' of 18,insC 3' of 1 (mixed) RNA 1: CACCCGUGCAAAAAUGCAGGGGUCUAAAACUGAGCGGAUAACCUCUCUAUGG RNA 2: GGGAAUGGAUCCACAUCUACGAAUUCGUACCAUAGGAGAGGUUAUCCGCUCACCCGAGAUCGGAAGAGCACACGU | 52 ± 4
target 1 insG 3' of 22,insC 3' of 1 (mixed) RNA 1: CACCCGUGCAAAAAUGCAGGGGUCUAAAACUGAGCGGAUAACCUCUCUAUGG RNA 2: GGGAAUGGAUCCACAUCUACGAAUUCGUACGCAUAGAGAGGUUAUCCGCUCACCCGAGAUCGGAAGAGCACACGU | 25.6 ± 1.6
target 1 insA 3' of 7,insA 3' of 3 (mixed) RNA 1: CACCCGUGCAAAAAUGCAGGGGUCUAAAACUGAGCGGAUAACCUCUCUAUGG RNA 2: GGGAAUGGAUCCACAUCUACGAAUUCGUACCAUAGAGAGGUUAUCACGCUACACCGAGAUCGGAAGAGCACACGU | 5.5 ± 0.4
target 1 insU 3' of 15,insU 3' of 2 (mixed) RNA 1: CACCCGUGCAAAAAUGCAGGGGUCUAAAACUGAGCGGAUAACCUCUCUAUGG RNA 2: GGGAAUGGAUCCACAUCUACGAAUUCGUACCAUAGAGUAGGUUAUCCGCUCUACCGAGAUCGGAAGAGCACACGU | 11.2 ± 0.6
target 1 insA 3' of 15,insC 3' of 12 (mixed) RNA 1: CACCCGUGCAAAAAUGCAGGGGUCUAAAACUGAGCGGAUAACCUCUCUAUGG RNA 2: GGGAAUGGAUCCACAUCUACGAAUUCGUACCAUAGAGAAGGCUUAUCCGCUCACCGAGAUCGGAAGAGCACACGU | 31 ± 6
target 1 insC 3' of 22,insG 3' of 1 (mixed) RNA 1: CACCCGUGCAAAAAUGCAGGGGUCUAAAACUGAGCGGAUAACCUCUCUAUGG RNA 2: GGGAAUGGAUCCACAUCUACGAAUUCGUACCCAUAGAGAGGUUAUCCGCUCAGCCGAGAUCGGAAGAGCACACGU | 15.3 ± 1.2
target 1 insU 3' of 16,insU 3' of 16 (mixed) RNA 1: CACCCGUGCAAAAAUGCAGGGGUCUAAAACUGAGCGGAUAACCUCUCUAUGG RNA 2: GGGAAUGGAUCCACAUCUACGAAUUCGUACCAUAGAUUGAGGUUAUCCGCUCACCGAGAUCGGAAGAGCACACGU | 38 ± 5
target 1 A9C,C22U (mixed) RNA 1: CACCCGUGCAAAAAUGCAGGGGUCUAAAACUGAGCGGAUAACCUCUCUAUGG RNA 2: GGGAAUGGAUCCACAUCUACGAAUUCGUAUCAUAGAGAGGUUCUCCGCUCACCGAGAUCGGAAGAGCACACGU | 54 ± 12
target 1 A1C,G12C (mixed) RNA 1: CACCCGUGCAAAAAUGCAGGGGUCUAAAACUGAGCGGAUAACCUCUCUAUGG RNA 2: GGGAAUGGAUCCACAUCUACGAAUUCGUACCAUAGAGAGCUUAUCCGCUCCCCGAGAUCGGAAGAGCACACGU | 19 ± 2.1
target 1 insA 3' of 15,insU 3' of 12 (mixed) RNA 1: CACCCGUGCAAAAAUGCAGGGGUCUAAAACUGAGCGGAUAACCUCUCUAUGG RNA 2: GGGAAUGGAUCCACAUCUACGAAUUCGUACCAUAGAGAAGGUUUAUCCGCUCACCGAGAUCGGAAGAGCACACGU | 4.9 ± 0.4
target 1 insC 3' of 15,insA 3' of 5 (mixed) RNA 1: CACCCGUGCAAAAAUGCAGGGGUCUAAAACUGAGCGGAUAACCUCUCUAUGG RNA 2: GGGAAUGGAUCCACAUCUACGAAUUCGUACCAUAGAGCAGGUUAUCCGACUCACCGAGAUCGGAAGAGCACACGU | 6.6 ± 0.5
target 1 insC 3' of 18,insU 3' of 7 (mixed) RNA 1: CACCCGUGCAAAAAUGCAGGGGUCUAAAACUGAGCGGAUAACCUCUCUAUGG RNA 2: GGGAAUGGAUCCACAUCUACGAAUUCGUACCAUACGAGAGGUUAUCUCGCUCACCGAGAUCGGAAGAGCACACGU | 67 ± 5
target 1 A20U,C22A (mixed) RNA 1: CACCCGUGCAAAAAUGCAGGGGUCUAAAACUGAGCGGAUAACCUCUCUAUGG RNA 2: GGGAAUGGAUCCACAUCUACGAAUUCGUAACUUAGAGAGGUUAUCCGCUCACCGAGAUCGGAAGAGCACACGU | 23.9 ± 2.8
target 1 insU 3' of 4,insC 3' of 3 (mixed) RNA 1: CACCCGUGCAAAAAUGCAGGGGUCUAAAACUGAGCGGAUAACCUCUCUAUGG RNA 2: GGGAAUGGAUCCACAUCUACGAAUUCGUACCAUAGAGAGGUUAUCCGCUUCCACCGAGAUCGGAAGAGCACACGU | 76 ± 22
